Measured values as given in the RNAGym collection of RNA variant scans (doi:10.1073/pnas.2313332121).

B1: TPR t1 (parent)
chain: GACCAAUCUGCCCUCAGAGCUCGAGAACAUCUUCGGAUGCAGAGGAGGCAGGCUUCGGUGGCGCGAUAGCGCCAACGUCCUCAACCUCCAAUGCAUCCCACCACAUGAUGAUGCCUGAAGAGCCUUGGUUUUUUG

Variants of: B1
Assay: polymerase ribozyme fitness, log enrichment relative to wild type (log ratio); higher = more active; in vitro selection for triplet polymerase activity
Method in brief: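 The heterodimeric triplet polymerase ribozyme's subunits were each mutagenized into PCR-built libraries and transcribed. Every library was selected once, in triplicate, by annealing with a biotinylated primer, the partner subunit and triplets, incubating frozen at −7 °C, gel-excising extended constructs, capturing on streptavidin beads and running RT-PCR. Input and output libraries were Illumina-sequenced, with genotypes kept only at ≥10 input reads and ≥1 read per output. Fitness, from inverse-variance-weighted replicate averages, is the base-2 logarithm of genotype enrichment over wild-type enrichment.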
With G35U G65U A121G the “polymerase ribozyme fitness (log ratio)” value was -5.82. With G35C G61C U81G G117C the “polymerase ribozyme fitness (log ratio)” value was -5.32. In the case of G36C C82G U126C, the “polymerase ribozyme fitness (log ratio)” value is reported as -2.57. With G36U C82G U92C the “polymerase ribozyme fitness (log ratio)” value was -2.13. For G36C A50C U59A A118U G120A, the “polymerase ribozyme fitness (log ratio)” value was -0.713. In the case of G35U C72U G117C, the “polymerase ribozyme fitness (log ratio)” value is reported as -7.07. For G35A U92G A121G U125A, the “polymerase ribozyme fitness (log ratio)” value was -5.24. For G36U G47A C79U, the “polymerase ribozyme fitness (log ratio)” value was -2.47. With G35U C56U A121G the “polymerase ribozyme fitness (log ratio)” value was -4.8. For G36U G45U G47U C101U C104A C123G U125C, the “polymerase ribozyme fitness (log ratio)” value was -5.24. In the case of G36U G63C C76G G117A, the “polymerase ribozyme fitness (log ratio)” value is reported as -5.18. For G36U G44A C104A, the “polymerase ribozyme fitness (log ratio)” value was -4.47. With G36A G57A C80U U112C C114A A119U G122U the “polymerase ribozyme fitness (log ratio)” value was -5.44. In the case of G36U C62A C123U G128C, the “polymerase ribozyme fitness (log ratio)” value is reported as -3.69. In the case of C34U U96A, the “polymerase ribozyme fitness (log ratio)” value is reported as -5.35. With C34U U96C the “polymerase ribozyme fitness (log ratio)” value was -5.22. For G36A C70A C114A, the “polymerase ribozyme fitness (log ratio)” value was -5.75. In the case of G35C G52U A68C U92A C98G G110C G117U, the “polymerase ribozyme fitness (log ratio)” value is reported as -6.61. In the case of G36C C53U U55G G113C G120C, the “polymerase ribozyme fitness (log ratio)” value is reported as -2.92. With G35A G77U the “polymerase ribozyme fitness (log ratio)” value was -3.89. In the case of G36U G58C C89A A91C C115U, the “polymerase ribozyme fitness (log ratio)” value is reported as -4.15. For G35C C53U C94U A121C, the “polymerase ribozyme fitness (log ratio)” value was -3.49. With G36U G61C the “polymerase ribozyme fitness (log ratio)” value was -2.58. In the case of G36U G61U, the “polymerase ribozyme fitness (log ratio)” value is reported as -0.625. In the case of G35A G42A G61A U106A U112G A121C G127U G128A, the “polymerase ribozyme fitness (log ratio)” value is reported as -6.38. For G36U G71U U87A C104A G113U C115U U130A, the “polymerase ribozyme fitness (log ratio)” value was -7.12. For G36U U59A G93C G120C, the “polymerase ribozyme fitness (log ratio)” value was -0.759. For G36A G45C C49A C73A, the “polymerase ribozyme fitness (log ratio)” value was -0.979. For G35A C73A U78G A90G C115G A121C, the “polymerase ribozyme fitness (log ratio)” value was -4.57. For G36U A66G G69U U87G, the “polymerase ribozyme fitness (log ratio)” value was -2.53. With G36A C72U U116C the “polymerase ribozyme fitness (log ratio)” value was -1.78. In the case of G35U U67G U109A C115U, the “polymerase ribozyme fitness (log ratio)” value is reported as -7.12. In the case of G36C C123U, the “polymerase ribozyme fitness (log ratio)” value is reported as -0.107. In the case of G36C A37U C82A U116G G120C, the “polymerase ribozyme fitness (log ratio)” value is reported as -3.26. In the case of G36C C94U C97U, the “polymerase ribozyme fitness (log ratio)” value is reported as -1.57. With G36A A41C A43U C88A A105C C123G the “polymerase ribozyme fitness (log ratio)” value was -5.88. With G35A C56U C72U G113A U133A the “polymerase ribozyme fitness (log ratio)” value was -5.8. In the case of G36C C79G C98U C115U C124U, the “polymerase ribozyme fitness (log ratio)” value is reported as -6.21. For G35U U112C, the “polymerase ribozyme fitness (log ratio)” value was -3.04. For G36A C53U U126A U129G U133G, the “polymerase ribozyme fitness (log ratio)” value was -4.06. With G36A C115U the “polymerase ribozyme fitness (log ratio)” value was -1.88. With G35U C86U C98A the “polymerase ribozyme fitness (log ratio)” value was -4.39. In the case of G36C G69U G120C, the “polymerase ribozyme fitness (log ratio)” value is reported as 0.673. In the case of G36A C64U, the “polymerase ribozyme fitness (log ratio)” value is reported as -0.622. With G35C A46C A118U C123G the “polymerase ribozyme fitness (log ratio)” value was -4.04. With G36U A50G C114A U132A the “polymerase ribozyme fitness (log ratio)” value was -2.9. In the case of G35U G120U, the “polymerase ribozyme fitness (log ratio)” value is reported as -5.06. With G35U G39C G120A U125A the “polymerase ribozyme fitness (log ratio)” value was -5.76. With G36C G44C U81G A121C the “polymerase ribozyme fitness (log ratio)” value was -3.56. For G36U A37C C104U, the “polymerase ribozyme fitness (log ratio)” value was -1.76. In the case of G36U C56A U132A, the “polymerase ribozyme fitness (log ratio)” value is reported as -1.83. With G36C C72A C76A U106A G110A the “polymerase ribozyme fitness (log ratio)” value was -5.56. With G35C G47A C56U A111G the “polymerase ribozyme fitness (log ratio)” value was -5.32. In the case of G36C C49U, the “polymerase ribozyme fitness (log ratio)” value is reported as -1.18. In the case of G36A G63A U78C, the “polymerase ribozyme fitness (log ratio)” value is reported as -1.53. With G36C C70U G113C the “polymerase ribozyme fitness (log ratio)” value was -3.46. In the case of G36C G69U U132C, the “polymerase ribozyme fitness (log ratio)” value is reported as -0.866. In the case of G35U U130C, the “polymerase ribozyme fitness (log ratio)” value is reported as -5.09. In the case of G36A U106A, the “polymerase ribozyme fitness (log ratio)” value is reported as -0.912. With G36U G48U U132A G135C the “polymerase ribozyme fitness (log ratio)” value was -1.44. In the case of G36C A37G G60C A121U, the “polymerase ribozyme fitness (log ratio)” value is reported as 0.419. For G35U C62U, the “polymerase ribozyme fitness (log ratio)” value was -3.74. With G36C C98G the “polymerase ribozyme fitness (log ratio)” value was -6.86. For G35A C89A, the “polymerase ribozyme fitness (log ratio)” value was -5.84. In the case of G36A G110A, the “polymerase ribozyme fitness (log ratio)” value is reported as -2.64. For G36C G52A, the “polymerase ribozyme fitness (log ratio)” value was -1.54. With G36U G44U A75G U112C U131G the “polymerase ribozyme fitness (log ratio)” value was -1.21. For G36A C86A C115A G120U, the “polymerase ribozyme fitness (log ratio)” value was -2.65. For G36A G61A, the “polymerase ribozyme fitness (log ratio)” value was -0.395. With G35U U78A C86U G93A G122A C123A the “polymerase ribozyme fitness (log ratio)” value was -6.42. With G36A U78A C82G U125G the “polymerase ribozyme fitness (log ratio)” value was -2.73. With G36A G60A C85U C124G the “polymerase ribozyme fitness (log ratio)” value was 0.468. With G35U A74G the “polymerase ribozyme fitness (log ratio)” value was -5.03. In the case of G35C C85A U109A C114G C124U, the “polymerase ribozyme fitness (log ratio)” value is reported as -4.87. For G36A G42A A43C C53U, the “polymerase ribozyme fitness (log ratio)” value was -3.85. For G35C C56U, the “polymerase ribozyme fitness (log ratio)” value was -4.82. With G35U A90C the “polymerase ribozyme fitness (log ratio)” value was -6.98. In the case of G36C C102A, the “polymerase ribozyme fitness (log ratio)” value is reported as -3.12. For G36U G47U U59A G117C, the “polymerase ribozyme fitness (log ratio)” value was -6.9. For G35U U78A, the “polymerase ribozyme fitness (log ratio)” value was -5.42. For G35A C53G C62U G77C A84C, the “polymerase ribozyme fitness (log ratio)” value was -4.08. With G35A G45A the “polymerase ribozyme fitness (log ratio)” value was -4.16. For G36A C49G G69U A90G C97U G120C, the “polymerase ribozyme fitness (log ratio)” value was 0.538. With G35U C101A C115U the “polymerase ribozyme fitness (log ratio)” value was -6.19.
